Earlier results, collected in patent publication US8536148B2, “Disabling autophagy as a treatment for lysosomal storage diseases” (The United States of America, as Represented by the …, priority 2009, dated 2013).

System: Hunter syndrome patients
[1] = from baseline, both dosing regimens

B1: idursulfase: recombinant human I2S produced in a human cell line, approved for Hunter syndrome (protein, UniProt P22304 34-455; P22304 456-550, looked up)
Iduronate 2-sulfatase 42 kDa …: TDALNVLLIIVDDLRPSLGCYGDKLVRSPNIDQLASHSLLFQNAFAQQAVCAPSRVSFLTGRRPDTTRLYDFNSYWRVHAGNFSTIPQYFKENGYVTMSVGKVFHPGISSNHTDDSPYSWSFPPYHPSSEKYENTKTCRGPDGELHANLLCPVDVLDVPEGTLPDKQSTEQAIQLLEKMKTSASPFFLAVGYHKPHIPFRYPKEFQKLYPLENITLAPDPEVPDGLPPVAYNPWMDIRQREDVQALNISVPYGPIPVDFQRKIRQSYFASVSYLDTQVGRLLSALDDLQLANSTIIAFTSDHGWALGEHGEWAKYSNFDVATHVPLIFYVPGRTASLPEAGEKLFPYLDPFDSASQLMEPGRQSMDLVELVSLFPTLAGLAGLQVPPRCPVPSFHVELCREGKNLLKHFRFRDLEEDPYLPG
Iduronate 2-sulfatase 14 kDa …: NPRELIAYSQYPRPSDIPQWNSDKPSLKDIKIMGYSIRTIDYRYTVWVGFNPDEFLANFSDIHAGELYFVDSDPLQDHNMYNDSQGGDLFQLLMP
Question: Which results are given for B1?
Answer: Liver and spleen volumes [1]: significantly reduced from baseline; Urine GAG excretion [1]: significantly reduced from baseline; Tolerability (human, in vivo): generally well tolerated; Clinical improvement vs placebo (patients with Hunter syndrome): statistically significant improvement rate compared with placebo
